From PMC8960874 (Nature Communications, 2022)

Biological target: T1, WT ectodomain of the SARS-CoV-2 spike trimer (SARS-CoV-2, original …, stabilised)
T1 construct: also called S trimer; prefusion spike trimer ectodomain
Assay: cryo-EM structure
Details: both partners purified

Binder	stoichiometry N
Clone 2 Fab (Fab, V domains shown, also called Fab2; Fab clone 2) VH: EVQLQQSGPELVKPGASVKISCKASGYSFTGYSMNWMKQSPEKSLEWIGEINPSTGGTTDNQKFKAKATLTVDKSSSTAYMQLKSLTSEDSAVYYCARSRGDYWGQGTSVTVSS VL: DIVLTQSPASLAVSLGQRATISCRASESVEYYGTSLMQWYQQKPGQPPKVLIYAASNVESGVPARFSGSGSGTDFSLNIHPVEEDDIAMYFCQQSRKVPWTFGGGTKLEIK	3 Fab molecules per S trimer
Clone 6 Fab (Fab, V domains shown, also called Fab6; Fab clone 6) VH: QVQLQQSAAELARPGASVKMSCKASGYTFTSYTMHWVKQRPGQGLEWIGYINPTSGYTEYNQNFKDKTTLTADKSSSTAYMQLNSLTSEDSAVYYCAREGHRVGPAYWGQGTLVTVSA VL: not shown	3 Fab molecules per S trimer
